Source: article PMC9482650, “Quantitative fragmentomics allow affinity mapping of interactomes” (Nature Communications, 2022)

T1: CARD11, Q9BXL7
T1 sequence (Q9BXL7 662-765, limits assumed, looked up): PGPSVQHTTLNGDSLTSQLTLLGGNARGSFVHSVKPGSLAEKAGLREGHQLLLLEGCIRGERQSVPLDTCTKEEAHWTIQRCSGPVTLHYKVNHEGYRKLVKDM

T2: FRMPD1, Q5SYB0
T2 sequence (Q5SYB0 52-145, limits assumed, looked up): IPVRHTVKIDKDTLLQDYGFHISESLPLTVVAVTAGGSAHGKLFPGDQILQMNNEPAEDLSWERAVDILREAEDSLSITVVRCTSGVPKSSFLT

T3: HTRA4, P83105
T3 sequence (P83105 378-476, limits assumed, looked up): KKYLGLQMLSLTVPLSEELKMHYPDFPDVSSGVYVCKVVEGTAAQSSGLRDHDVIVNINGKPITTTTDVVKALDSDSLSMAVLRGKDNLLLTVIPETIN

T4: LRRC7, Q96NW7
T4 sequence (Q96NW7 1440-1537, limits assumed, looked up): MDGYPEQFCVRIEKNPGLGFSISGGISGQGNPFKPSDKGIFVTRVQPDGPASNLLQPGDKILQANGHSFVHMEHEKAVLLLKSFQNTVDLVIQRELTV

T5: MPDZ_5, O75970
T5 sequence (O75970 695-796, limits assumed, looked up): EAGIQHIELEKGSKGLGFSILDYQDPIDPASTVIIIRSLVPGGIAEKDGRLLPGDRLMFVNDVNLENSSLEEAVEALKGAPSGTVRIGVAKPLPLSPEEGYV

T6: MPP2, Q14168
T6 sequence (Q14168 180-250, limits assumed, looked up): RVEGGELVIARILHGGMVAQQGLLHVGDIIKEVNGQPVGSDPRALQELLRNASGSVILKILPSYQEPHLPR

T7: NHERF3_4, Q5T2W1
T7 sequence (Q5T2W1 373-468, limits assumed, looked up): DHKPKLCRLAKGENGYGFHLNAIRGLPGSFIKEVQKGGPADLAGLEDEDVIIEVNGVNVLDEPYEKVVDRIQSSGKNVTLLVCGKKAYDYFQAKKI

T8: PTPN13_1, Q12923
T8 sequence (Q12923 1088-1188, limits assumed, looked up): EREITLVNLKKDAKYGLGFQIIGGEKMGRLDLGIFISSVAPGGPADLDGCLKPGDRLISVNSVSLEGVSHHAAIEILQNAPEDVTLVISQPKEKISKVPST

T9: SIPA1L2, Q9P2F8
T9 sequence (Q9P2F8 945-1036, limits assumed, looked up): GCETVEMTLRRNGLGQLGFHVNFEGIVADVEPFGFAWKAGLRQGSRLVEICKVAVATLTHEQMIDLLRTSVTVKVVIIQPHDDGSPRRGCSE

T10: SNTB1, Q13884
T10 sequence (Q13884 107-205, limits assumed, looked up): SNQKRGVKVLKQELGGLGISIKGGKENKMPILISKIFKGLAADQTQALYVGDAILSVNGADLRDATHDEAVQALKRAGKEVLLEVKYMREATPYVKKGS

T11: SNTG2, Q9NY99
T11 sequence (Q9NY99 68-166, limits assumed, looked up): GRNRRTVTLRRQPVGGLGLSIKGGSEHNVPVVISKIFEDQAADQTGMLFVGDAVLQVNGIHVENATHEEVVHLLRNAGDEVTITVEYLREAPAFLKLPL


Key:
Experiment in all cases: holdup assay
Parameters in all cases: key: below the threshold = too weak to quantify, mostly under pKd 3.1 to 4
Settings in all cases: plain residues with an end cap or a label only (N-terminal biotin on a linker: ado-ado)
CARD11, Q9BXL7 = target: T1, CARD11, Q9BXL7
DLG1_2, Q12959 = target: DLG1_2, Q12959
DLG4_2, P78352 = target: DLG4_2, P78352
DLG4_3, P78352 = target: DLG4_3, P78352
FRMPD1, Q5SYB0 = target: T2, FRMPD1, Q5SYB0
FRMPD2_2, Q68DX3 = target: FRMPD2_2, Q68DX3
GRASP, Q7Z6J2 = target: GRASP, Q7Z6J2
GRIP2_3, Q9C0E4 = target: GRIP2_3, Q9C0E4
HTRA1, Q92743 = target: HTRA1, Q92743
HTRA4, P83105 = target: T3, HTRA4, P83105
Inadl_1, Q8NI35 = target: Inadl_1, Q8NI35
Inadl_5, Q8NI35 = target: Inadl_5, Q8NI35
LAP2, Q96RT1 = target: LAP2, Q96RT1
LRRC7, Q96NW7 = target: T4, LRRC7, Q96NW7
MAGI3_2, Q5TCQ9 = target: MAGI3_2, Q5TCQ9
MPDZ_5, O75970 = target: T5, MPDZ_5, O75970
MPP2, Q14168 = target: T6, MPP2, Q14168
NHERF2_2, Q15599 = target: NHERF2_2, Q15599
NHERF3_4, Q5T2W1 = target: T7, NHERF3_4, Q5T2W1
NHERF4_1, Q86UT5-2 = target: NHERF4_1, Q86UT5-2
PICK1, Q9NRD5 = target: PICK1, Q9NRD5
PTPN13_1, Q12923 = target: T8, PTPN13_1, Q12923
SIPA1L2, Q9P2F8 = target: T9, SIPA1L2, Q9P2F8
SNTB1, Q13884 = target: T10, SNTB1, Q13884
SNTG2, Q9NY99 = target: T11, SNTG2, Q9NY99
TJP1_3, Q07157 = target: TJP1_3, Q07157
Chain of TJP1_3, Q07157 (Q07157 416-512): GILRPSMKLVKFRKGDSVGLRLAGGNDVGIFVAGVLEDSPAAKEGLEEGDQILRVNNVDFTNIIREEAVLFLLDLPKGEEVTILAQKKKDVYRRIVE

Chain of Inadl_5, Q8NI35 (Q8NI35 673-780): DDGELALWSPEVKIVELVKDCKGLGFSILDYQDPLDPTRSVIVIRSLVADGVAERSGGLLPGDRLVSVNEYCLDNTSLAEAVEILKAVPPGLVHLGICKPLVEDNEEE
Chain of LAP2, Q96RT1 (Q96RT1 other isoform, or with tags, fused parts or gaps): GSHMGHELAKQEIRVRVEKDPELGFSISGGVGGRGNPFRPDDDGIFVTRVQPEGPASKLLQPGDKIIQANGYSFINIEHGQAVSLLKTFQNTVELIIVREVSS
Chain of MAGI3_2, Q5TCQ9 (Q5TCQ9 398-503): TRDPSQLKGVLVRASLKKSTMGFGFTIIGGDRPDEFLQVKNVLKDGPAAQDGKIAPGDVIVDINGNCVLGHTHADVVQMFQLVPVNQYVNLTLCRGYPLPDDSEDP
Chain of DLG1_2, Q12959 (Q12959 314-412): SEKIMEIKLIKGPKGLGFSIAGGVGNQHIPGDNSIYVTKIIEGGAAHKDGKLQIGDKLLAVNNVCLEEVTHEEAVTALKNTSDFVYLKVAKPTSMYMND
Chain of Inadl_1, Q8NI35 (Q8NI35 113-229): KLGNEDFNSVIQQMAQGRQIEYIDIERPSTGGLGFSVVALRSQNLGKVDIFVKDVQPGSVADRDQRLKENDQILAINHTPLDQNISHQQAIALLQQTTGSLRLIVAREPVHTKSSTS
Chain of NHERF4_1, Q86UT5-2 (Q86UT5 other isoform, or with tags, fused parts or gaps): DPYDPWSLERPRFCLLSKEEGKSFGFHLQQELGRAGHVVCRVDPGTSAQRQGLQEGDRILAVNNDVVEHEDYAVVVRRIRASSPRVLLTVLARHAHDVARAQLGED
Chain of GRIP2_3, Q9C0E4 (Q9C0E4 238-339): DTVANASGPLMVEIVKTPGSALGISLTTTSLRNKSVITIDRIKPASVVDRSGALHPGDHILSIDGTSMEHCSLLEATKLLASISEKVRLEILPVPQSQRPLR
Chain of NHERF2_2, Q15599 (Q15599 142-238): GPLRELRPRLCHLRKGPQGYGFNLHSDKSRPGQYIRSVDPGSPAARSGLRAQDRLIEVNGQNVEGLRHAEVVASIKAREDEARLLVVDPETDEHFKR
Chain of HTRA1, Q92743 (Q92743 360-477): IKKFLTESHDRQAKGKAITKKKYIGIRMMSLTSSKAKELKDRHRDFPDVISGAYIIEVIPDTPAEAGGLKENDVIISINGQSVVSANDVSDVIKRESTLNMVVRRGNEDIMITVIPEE
Chain of FRMPD2_2, Q68DX3 (Q68DX3 944-1038): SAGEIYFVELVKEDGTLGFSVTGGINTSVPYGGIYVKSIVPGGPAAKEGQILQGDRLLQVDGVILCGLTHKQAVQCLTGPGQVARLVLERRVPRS
Chain of DLG4_3, P78352 (P78352 306-403): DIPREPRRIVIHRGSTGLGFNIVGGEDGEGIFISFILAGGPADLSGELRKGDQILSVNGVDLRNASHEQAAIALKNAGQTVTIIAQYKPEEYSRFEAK
Chain of PICK1, Q9NRD5 (Q9NRD5 17-115): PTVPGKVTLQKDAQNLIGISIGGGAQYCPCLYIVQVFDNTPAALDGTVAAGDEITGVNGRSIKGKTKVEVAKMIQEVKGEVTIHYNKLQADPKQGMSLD
Chain of DLG4_2, P78352 (P78352 155-259): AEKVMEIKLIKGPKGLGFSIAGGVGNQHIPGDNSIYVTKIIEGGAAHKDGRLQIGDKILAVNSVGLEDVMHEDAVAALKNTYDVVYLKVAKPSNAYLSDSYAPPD
Chain of GRASP, Q7Z6J2 (Q7Z6J2 96-193): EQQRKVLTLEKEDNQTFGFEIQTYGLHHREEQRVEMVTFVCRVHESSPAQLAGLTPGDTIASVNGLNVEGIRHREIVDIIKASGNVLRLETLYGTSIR

Binder	pKd (CARD11, Q9BXL7)	pKd (DLG1_2, Q12959)	pKd (DLG4_2, P78352)	pKd (DLG4_3, P78352)	pKd (FRMPD1, Q5SYB0)	pKd (FRMPD2_2, Q68DX3)	pKd (GRASP, Q7Z6J2)	pKd (GRIP2_3, Q9C0E4)	pKd (HTRA1, Q92743)	pKd (HTRA4, P83105)	pKd (Inadl_1, Q8NI35)	pKd (Inadl_5, Q8NI35)	pKd (LAP2, Q96RT1)	pKd (LRRC7, Q96NW7)	pKd (MAGI3_2, Q5TCQ9)	pKd (MPDZ_5, O75970)	pKd (MPP2, Q14168)	pKd (NHERF2_2, Q15599)	pKd (NHERF3_4, Q5T2W1)	pKd (NHERF4_1, Q86UT5-2)	further results
EGGKKRESEA [APPL1, Q9UKG1]	below the threshold	below the threshold	below the threshold	below the threshold	below the threshold	below the threshold	below the threshold	below the threshold	below the threshold	below the threshold	below the threshold	below the threshold	3.59	below the threshold	below the threshold	below the threshold	below the threshold	below the threshold	below the threshold	below the threshold	pKd (PICK1, Q9NRD5): below the threshold; pKd (PTPN13_1, Q12923): below the threshold; pKd (SIPA1L2, Q9P2F8): below the threshold; pKd (SNTB1, Q13884): below the threshold; pKd (SNTG2, Q9NY99): below the threshold; pKd (TJP1_3, Q07157): below the threshold
ADRDHASDQL [CTBP1, Q13363]	below the threshold	below the threshold	below the threshold	below the threshold	below the threshold	below the threshold	below the threshold	below the threshold	below the threshold	3.73	below the threshold	below the threshold	below the threshold	below the threshold	below the threshold	below the threshold	below the threshold	3.89	below the threshold	4.05	pKd (PICK1, Q9NRD5): 4.13; pKd (PTPN13_1, Q12923): below the threshold; pKd (SIPA1L2, Q9P2F8): below the threshold; pKd (SNTB1, Q13884): below the threshold; pKd (SNTG2, Q9NY99): below the threshold; pKd (TJP1_3, Q07157): below the threshold

Further lines, with some results ahead:

pKd (CARD11, Q9BXL7)	pKd (DLG1_2, Q12959)	pKd (DLG4_2, P78352)	pKd (DLG4_3, P78352)	pKd (FRMPD1, Q5SYB0)	pKd (FRMPD2_2, Q68DX3)	pKd (GRASP, Q7Z6J2)	pKd (GRIP2_3, Q9C0E4)	pKd (HTRA1, Q92743)	pKd (HTRA4, P83105)	pKd (Inadl_1, Q8NI35)	pKd (Inadl_5, Q8NI35)	pKd (LAP2, Q96RT1)	pKd (LRRC7, Q96NW7)	pKd (MAGI3_2, Q5TCQ9)	pKd (MPDZ_5, O75970)	pKd (MPP2, Q14168)	pKd (NHERF2_2, Q15599)	pKd (NHERF3_4, Q5T2W1)	pKd (NHERF4_1, Q86UT5-2)	Binder	further results
below the threshold	3.85	below the threshold	below the threshold	below the threshold	below the threshold	4.36	below the threshold	4.17	below the threshold	below the threshold	below the threshold	below the threshold	below the threshold	4	below the threshold	below the threshold	3.6	below the threshold	3.8	VGIERETDVL [EZH1, Q92800]	pKd (PICK1, Q9NRD5): 4.09; pKd (PTPN13_1, Q12923): below the threshold; pKd (SIPA1L2, Q9P2F8): below the threshold; pKd (SNTB1, Q13884): 4.52; pKd (SNTG2, Q9NY99): below the threshold; pKd (TJP1_3, Q07157): below the threshold
below the threshold	below the threshold	3.79	3.62	below the threshold	3.52	3.69	3.53	below the threshold	below the threshold	below the threshold	3.58	below the threshold	below the threshold	below the threshold	3.6	below the threshold	4.27	3.54	3.91	QLAEIAESGL [ITK, Q08881]	pKd (PICK1, Q9NRD5): below the threshold; pKd (PTPN13_1, Q12923): below the threshold; pKd (SIPA1L2, Q9P2F8): 3.67; pKd (SNTB1, Q13884): 3.67; pKd (SNTG2, Q9NY99): 3.82; pKd (TJP1_3, Q07157): below the threshold
below the threshold	4.45	4.27	3.64	below the threshold	below the threshold	3.49	below the threshold	3.84	3.9	below the threshold	below the threshold	3.65	below the threshold	4.51	below the threshold	below the threshold	3.51	below the threshold	3.51	GSSSKEGTSV [RRBP1, Q9P2E9]	pKd (PICK1, Q9NRD5): 4.14; pKd (PTPN13_1, Q12923): below the threshold; pKd (SIPA1L2, Q9P2F8): below the threshold; pKd (SNTB1, Q13884): 3.9; pKd (SNTG2, Q9NY99): 3.59; pKd (TJP1_3, Q07157): below the threshold
